Test results taken from US20200131274A1 (CRESCENDO BIOLOGICS, published 2020).
Numbering of substitutions follows the chain as printed. In names and notes the source's numbering stands.

B1: HiPEG A-2-B-His6 val-cit-PAB-MMAE (bispecific antibody)
chain: EVQLVESGGGVVQPGRSLRLSCAASGFSFSGYGMHWVRQAPGKGLEWVAYISYDGSNKYYADSVKGRFTISRDNSKNTLYLQMNSLRAEDTAVYYCAKDPAWGLRLGESSSYDFDIWGQGTMVTVSSGGGGSGGGGSGGGGSGGGGSGGGGSGGGGSEVQLLESGGGLVQPGGSLRLSCAASGFSFSSYAMSWVRQAPGKGLEWVSSIGENDGTTDYADSVKGRFTISRDNSKSMLYLQMNSLRVEDTAVYYCVKDGVHWGQGTLVTVSSAAAHHHHHH
modifications: HiPEG val-cit-PAB-MMAE attached via the C-terminal His6-tag, DAR 1
B2: HiPEG B-1-A-His6 val-cit-PAB-MMAE (bispecific antibody)
chain: EVQLLESGGGLVQPGGSLRLSCAASGFSFSSYAMSWVRQAPGKGLEWVSSIGENDGTTDYADSVKGRFTISRDNSKSMLYLQMNSLRVEDTAVYYCVKDGVHWGQGTLVTVSSGGGGSGGGGSEVQLVESGGGVVQPGRSLRLSCAASGFSFSGYGMHWVRQAPGKGLEWVAYISYDGSNKYYADSVKGRFTISRDNSKNTLYLQMNSLRAEDTAVYYCAKDPAWGLRLGESSSYDFDIWGQGTMVTVSS
modifications: HiPEG val-cit-PAB-MMAE attached via the C-terminal His6-tag, DAR 1
B3: HiPEG A-His6 val-cit-PAB-MMAE (VHH)
VHH: EVQLVESGGGVVQPGRSLRLSCAASGFSFSGYGMHWVRQAPGKGLEWVAYISYDGSNKYYADSVKGRFTISRDNSKNTLYLQMNSLRAEDTAVYYCAKDPAWGLRLGESSSYDFDIWGQGTMVTVSS
modifications: HiPEG val-cit-PAB-MMAE attached via the C-terminal His6-tag, DAR 1
B4: HiPEG B-His6 val-cit-PAB-MMAE (VHH)
VHH: EVQLLESGGGLVQPGGSLRLSCAASGFSFSSYAMSWVRQAPGKGLEWVSSIGENDGTTDYADSVKGRFTISRDNSKSMLYLQMNSLRVEDTAVYYCVKDGVHWGQGTLVTVSS
modifications: HiPEG val-cit-PAB-MMAE attached via the C-terminal His6-tag, DAR 0.9
B5: single VH domain antibody 1.10 (VHH)
VHH: B4 VHH with M34L, D55N, G56A, S63F, S77N, M78T
notes: Human single VH domain antibody (Humabody)
B6: single VH domain antibody 1.14 (VHH)
VHH: B4 VHH with M34L, D55N, G56A, S63V, S77N, M78T
notes: as for B5
B7: single VH domain antibody 2.12 (VHH)
VHH: B3 VHH with G55K, S63K
notes: Human single VH domain antibody (Humabody); C-terminal His tag, residues not tied
B8: single VH domain antibody 2.13 (VHH)
VHH: B3 VHH with M34L, G55A, S63N
notes: as for B7
B9: single VH domain antibody 1.13 (VHH)
VHH: B4 VHH with M34L, D55N, G56H, D62A, S63D, S77N, M78T
notes: as for B5
B10: single VH domain antibody 2.14 (VHH)
VHH: B3 VHH with M34V, G55A, S63N
notes: as for B7
B11: single VH domain antibody 2.18 (VHH)
VHH: B3 VHH with M34Q, G55A, S63N
notes: as for B7
B12: 1.11-6GS-2.22 (bispecific antibody)
chain: EVQLLESGGGLVQPGGSLRLSCAASGFSFSSYALSWVRQAPGKGLEWVSSIGENNDTTDYADNVKGRFTISRDNSKNTLYLQMNSLRVEDTAVYYCVKDGVHWGQGTLVTVSSGGGGSGGGGSGGGGSGGGGSGGGGSGGGGSEVQLVESGGGVVQPGRSLRLSCAASGFSFSGYGTHWVRQAPGKGLEWVAYISYDGSNKYYAAPVKGRFTISRDNSKNTLYLQMNSLRAEDTAVYYCAKDAAWGLRLGESSSYDFDIWGQGTMVTVSS
notes: linker (G4S)6; also called 1.11-2.22; 1.11-6GS-2.22His
B13: 1.16-6GS-2.22 (bispecific antibody)
chain: B12 chain with D56H, N63T
notes: linker (G4S)6
B14: 1.18-6GS-2.1 (bispecific antibody)
chain: B12 chain with D56A, D62A, N63S, T177M, A205D, P206S, A243P
notes: linker (G4S)6
B15: 1.18-6GS-2.17 (bispecific antibody)
chain: B12 chain with D56A, D62A, N63S, T177M, G198A, A205D, P206N, A243P
notes: linker (G4S)6
B16: 1.18-6GS-2.22 (bispecific antibody)
chain: B12 chain with D56A, D62A, N63S
notes: linker (G4S)6
B17: HiPEG B-2-A-His6 val-cit-PAB-MMAE (bispecific antibody)
chain: B12 chain with L34M, N55D, D56G, N63S, N77S, T78M, T177M, A205D, P206S, A243P
modifications: HiPEG val-cit-PAB-MMAE attached via the C-terminal His6-tag, DAR 1
B18: HiPEG D-His6 val-cit-PAB-MMAE (VHH)
VHH: EVQLLESGGGLVQPGGSLRLSCAASGFRISDEDMGWVRQAPGKGLEWVSSIYGPSGSTYYADSVKGRFTISRDNSKNTLYLQMNSLRAEDTAVYYCASALEPLSEPLGFWGQGTLVTVSS
modifications: HiPEG val-cit-PAB-MMAE attached via the C-terminal His6-tag

molecular target: T1, human prostate specific membrane antigen (PSMA), full-length, on cells (human, UniProt Q04609 1-750); assay: cell-based or functional assay
T1 sequence (Q04609 whole entry): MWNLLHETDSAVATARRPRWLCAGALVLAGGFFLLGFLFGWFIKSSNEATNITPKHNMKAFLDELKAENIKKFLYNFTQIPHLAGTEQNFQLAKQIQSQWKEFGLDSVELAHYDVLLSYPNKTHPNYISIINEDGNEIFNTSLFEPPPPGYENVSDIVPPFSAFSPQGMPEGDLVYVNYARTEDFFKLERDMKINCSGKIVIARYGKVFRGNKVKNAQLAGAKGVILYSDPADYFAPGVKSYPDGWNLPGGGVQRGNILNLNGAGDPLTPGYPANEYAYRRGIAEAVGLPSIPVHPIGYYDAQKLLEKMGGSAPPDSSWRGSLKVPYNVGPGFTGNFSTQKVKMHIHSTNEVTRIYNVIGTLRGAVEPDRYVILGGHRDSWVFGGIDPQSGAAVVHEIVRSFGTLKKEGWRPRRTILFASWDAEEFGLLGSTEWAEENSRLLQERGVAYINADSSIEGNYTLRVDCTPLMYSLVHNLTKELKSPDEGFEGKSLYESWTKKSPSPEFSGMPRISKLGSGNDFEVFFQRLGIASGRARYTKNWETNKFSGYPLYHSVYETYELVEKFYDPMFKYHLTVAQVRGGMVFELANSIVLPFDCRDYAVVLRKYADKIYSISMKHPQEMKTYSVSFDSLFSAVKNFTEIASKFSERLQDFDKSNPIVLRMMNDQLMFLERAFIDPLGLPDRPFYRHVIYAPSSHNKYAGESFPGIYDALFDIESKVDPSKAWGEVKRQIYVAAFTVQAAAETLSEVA

Binder	IC50 (nM), cytotoxicity on DU145 PSMA cells, 72 h [nM]	IC50 (toxin) nM, DU145 PSMA cells, 72 h [nM]
B1	0.29	0.29
B2	0.1	0.1
B3	0.55	0.55
B4	4.1	3.69

molecular target: T1, human prostate specific membrane …; assay: cell-based or functional assay; remark: another data set of the same source

Binder	pHrodo Green internalization assay, human PSMA Average EC50 (M)
B5	6.4e-10
B6	4.4e-10
B7	5.3e-10
B8	5.8e-10

molecular target: T2, recombinant human PSMA (R&D, cat. no. 4234-ZN) (human, UniProt Q04609 44-750); assay: Octet RED384 BLI, PSMA on sensor, VH series from 0.375 ug/ml
T2 construct: Bought protein; also called rhPSMA; Recombinant PMSA
T2 sequence (Q04609 44-750 limits assumed): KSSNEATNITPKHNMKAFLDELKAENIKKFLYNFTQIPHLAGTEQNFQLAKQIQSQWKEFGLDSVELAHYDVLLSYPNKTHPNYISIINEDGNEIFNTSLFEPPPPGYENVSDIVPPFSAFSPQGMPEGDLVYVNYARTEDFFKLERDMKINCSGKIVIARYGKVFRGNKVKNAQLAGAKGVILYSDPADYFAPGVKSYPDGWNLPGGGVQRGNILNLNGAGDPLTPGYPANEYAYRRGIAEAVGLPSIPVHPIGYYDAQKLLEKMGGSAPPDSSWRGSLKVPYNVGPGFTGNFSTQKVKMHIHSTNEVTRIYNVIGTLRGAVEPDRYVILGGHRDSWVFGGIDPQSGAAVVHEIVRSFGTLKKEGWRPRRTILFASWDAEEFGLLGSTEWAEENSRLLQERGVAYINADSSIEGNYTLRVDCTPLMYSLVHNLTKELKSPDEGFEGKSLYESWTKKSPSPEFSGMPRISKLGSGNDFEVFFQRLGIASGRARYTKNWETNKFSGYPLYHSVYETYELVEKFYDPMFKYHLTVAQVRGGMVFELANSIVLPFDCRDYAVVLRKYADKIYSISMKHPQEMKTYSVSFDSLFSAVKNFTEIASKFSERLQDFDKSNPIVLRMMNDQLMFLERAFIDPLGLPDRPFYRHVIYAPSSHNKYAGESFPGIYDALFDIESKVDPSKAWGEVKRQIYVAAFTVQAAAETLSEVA

Binder	Kd [nM]	koff [s⁻¹]
B5	0.67	0.000418
B6	0.46	0.000335

molecular target: T3, cynomolgus PSMA, full-length, on CHO cells (cynomolgus, UniProt A0A2K5VNZ0 1-750); assay: FMAT direct cell binding, CHO cyno PSMA cells
T3 construct: whole, on cells; also called cynoPSMA; cyno PSMA

Binder	EC50 [nM]
B5	0.152
B9	0.115
B6	0.145
B10	0.427
B11	0.337

molecular target: T1, human prostate specific membrane …; assay: FMAT direct cell binding, human PSMA-CHO cells

Binder	EC50 [nM]
B12	0.219
B13	0.225
B14	0.294
B15	0.278
B16	0.196

molecular target: T3, cynomolgus PSMA, full-length, on CHO …; assay: cell-based or functional assay

Binder	His-ZAP cell killing, cyno PSMA EC50 [pM]	His-ZAP cell killing, cyno PSMA Average EC50 [pM]
B5	1300	
B6	790	
B7	91	
B8	80	
B12		9.5
B13		11
B14		5.8
B15		5.6
B16		14

molecular target: T1, human prostate specific membrane …; assay: cell-based or functional assay; remark: another data set of the same source

Binder	His-ZAP cell killing, human PSMA Average EC50 [pM]
B5	21
B6	17
B7	16
B8	27
B12	10
B13	20
B14	5.7
B15	12
B16	15

molecular target: T1, human prostate specific membrane …; assay: FMAT direct cell binding, DU145 PSMA cells

Binder	EC50 [nM]
B5	0.067
B9	0.0456
B6	0.052
B10	0.202
B11	0.25

molecular target: T1, human prostate specific membrane …; assay: cell-based or functional assay; remark: another data set of the same source

Binder	IC50 (nM), PSMA-DU145 cytotoxicity assay (72 h) [nM]	IC50 (toxin) (nM), PSMA-DU145 cytotoxicity assay (72 h) [nM]
B17	0.27	0.27
B18	> 100	> 100

molecular target: T2, recombinant human PSMA (R&D, cat. no. …); assay: Octet RED384 BLI, PSMA on sensor, VH series from 0.375 ug/ml; remark: another data set of the same source

Binder	Kd [nM]	koff [s⁻¹]
B7	1.56	0.00157
B8	0.99	0.000743

molecular target: T1, human prostate specific membrane …; assay: FMAT direct cell binding, CHO human PSMA cells

Binder	EC50 [nM]
B5	0.0718
B9	0.0513
B6	0.0588
B10	0.11
B11	0.104

molecular target: T1, human prostate specific membrane …; assay: cell-based or functional assay; remark: another data set of the same source

Binder	IC50 Toxin (nM), DU145 PSMA cells, 48 h [nM]	Mean IC50, cytotoxicity on DU145 PSMA cells, 48 h [nM]	Mean Max % Cell kill, DU145 PSMA cells, 48 h [%]
B1	0.37	0.37	78
B2	0.13	0.13	79
B17	0.15	0.15	79
B3	1.16	1.2	74
B4	2.43	2.7	73
B18		> 300	

molecular target: T1, human prostate specific membrane …; assay: FMAT direct cell binding, LNCap cells

Binder	EC50 [nM]
B5	0.133
B9	0.0386
B6	0.0833
B10	0.0332
B11	0.0354
